The term Kd denotes the constant that tells how readily two partners part at equilibrium.

For 2 molecules, Kd results are on record in publication PMC8733265, “Microscale thermophoresis suggests a new model of regulation of cardiac myosin function via interaction with cardiac myosin-binding protein C” (The Journal of Biological Chemistry, 2021).

Holding throughout (experiment): MST; Monolith NT.115; 100 nmol/l Alexa647-labelled protein fixed, partner titrated; 20 mmol/l Mops pH 7, 1 mmol/l MgCl2, 50 mmol/l KCl, 1 mmol/l DTT, 0.05% Tween-20
What all share (details): both partners purified

Assay [1] deals with T1, C2C4 segment of cMyBP-C (UniProt Q14896 362-633).
T1 construct: also called C2–C3–C4; C2C4 module; source: E. coli BL21(DE3)-RIPL, purified (HisTrapFF, TEV, ion exchange); not shown: His tag, N-terminal, cleaved

The target in assay [2] is T2, domain C1 of cMyBP-C (UniProt Q14896 151-258).
T2 construct: source: E. coli BL21(DE3)-RIPL, purified (HisTrapFF, TEV, ion exchange); not shown: His tag, N-terminal, cleaved

The target in assay [3] is T3, domain C0 of cMyBP-C (UniProt Q14896 1-101).
T3 construct: source: E. coli BL21(DE3)-RIPL, purified (HisTrapFF, TEV, ion exchange); not shown: His tag, N-terminal, cleaved

The target of assay [4] is T4, C5C7 segment of cMyBP-C (UniProt Q14896 645-967).
T4 construct: also called C5–C6–C7; wildtype C5C7; source: E. coli BL21(DE3)-RIPL, purified (HisTrapFF, TEV, ion exchange); not shown: His tag, N-terminal, cleaved
T4 sequence (looked up): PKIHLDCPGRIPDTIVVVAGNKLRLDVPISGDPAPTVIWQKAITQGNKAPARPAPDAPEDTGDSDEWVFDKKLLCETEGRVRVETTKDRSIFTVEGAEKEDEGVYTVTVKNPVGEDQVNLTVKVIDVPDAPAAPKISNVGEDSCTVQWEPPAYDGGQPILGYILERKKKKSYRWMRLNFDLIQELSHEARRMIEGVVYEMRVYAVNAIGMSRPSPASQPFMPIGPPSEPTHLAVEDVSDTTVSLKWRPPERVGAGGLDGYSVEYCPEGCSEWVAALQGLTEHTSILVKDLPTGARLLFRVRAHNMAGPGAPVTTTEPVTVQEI

The target in assay [5] is T5, domain C2 of cMyBP-C (UniProt Q14896 362-452).
T5 construct: source: E. coli BL21(DE3)-RIPL, purified (HisTrapFF, TEV, ion exchange); not shown: His tag, N-terminal, cleaved

For assay [6], the target named is T6, C0C1 fragment of cMyBP-C (UniProt Q14896 1-258).
T6 construct: also called C0-P/A-C1; source: E. coli BL21(DE3)-RIPL, purified (HisTrapFF, TEV, ion exchange); not shown: His tag, N-terminal, cleaved

Assay [7] deals with T7, C0C2, cMyBP-C spanning domains C0 to C2 (UniProt Q14896 1-452).
T7 construct: also called N-terminal domains (NTD) of cMyBP-C; C0-P/A-C1-m-C2; source: E. coli BL21(DE3)-RIPL, purified (HisTrapFF, TEV, ion exchange); not shown: His tag, N-terminal, cleaved

The target of assay [8] is T8, C0C2-3P, tris-phosphorylated C0C2 (UniProt Q14896 1-452, tris-phosphorylated by PKA (m-motif; sites not given)).
T8 construct: not shown: His tag, N-terminal, cleaved
T8 sequence (Q14896 1-452): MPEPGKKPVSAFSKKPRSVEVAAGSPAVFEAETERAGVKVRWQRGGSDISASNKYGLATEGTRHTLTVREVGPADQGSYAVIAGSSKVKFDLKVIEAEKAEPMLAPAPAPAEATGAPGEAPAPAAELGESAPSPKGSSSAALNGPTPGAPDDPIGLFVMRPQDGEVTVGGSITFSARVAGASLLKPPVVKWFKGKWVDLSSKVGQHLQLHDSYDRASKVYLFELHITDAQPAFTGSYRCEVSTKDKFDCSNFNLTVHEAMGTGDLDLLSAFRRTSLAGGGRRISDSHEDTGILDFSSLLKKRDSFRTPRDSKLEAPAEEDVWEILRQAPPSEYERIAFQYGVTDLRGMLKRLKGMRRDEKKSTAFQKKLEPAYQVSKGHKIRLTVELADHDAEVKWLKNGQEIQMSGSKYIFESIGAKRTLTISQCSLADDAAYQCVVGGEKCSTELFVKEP

T7 sequence (Q14896 1-452): as above
T2 sequence (Q14896 151-258): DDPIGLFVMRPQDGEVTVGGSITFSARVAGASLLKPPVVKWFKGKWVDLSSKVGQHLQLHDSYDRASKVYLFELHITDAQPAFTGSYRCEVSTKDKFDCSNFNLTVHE
T5 sequence (Q14896 362-452): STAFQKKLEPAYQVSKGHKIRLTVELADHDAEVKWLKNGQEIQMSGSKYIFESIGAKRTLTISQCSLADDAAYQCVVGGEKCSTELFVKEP
T1 sequence (Q14896 362-633): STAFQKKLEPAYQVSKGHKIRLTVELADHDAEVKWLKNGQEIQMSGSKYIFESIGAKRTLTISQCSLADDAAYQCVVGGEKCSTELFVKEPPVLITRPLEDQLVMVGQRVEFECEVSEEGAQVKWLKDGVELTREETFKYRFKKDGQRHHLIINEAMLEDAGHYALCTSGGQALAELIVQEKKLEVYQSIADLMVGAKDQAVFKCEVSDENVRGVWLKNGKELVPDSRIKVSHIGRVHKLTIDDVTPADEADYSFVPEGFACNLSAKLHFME
T6 sequence (Q14896 1-258): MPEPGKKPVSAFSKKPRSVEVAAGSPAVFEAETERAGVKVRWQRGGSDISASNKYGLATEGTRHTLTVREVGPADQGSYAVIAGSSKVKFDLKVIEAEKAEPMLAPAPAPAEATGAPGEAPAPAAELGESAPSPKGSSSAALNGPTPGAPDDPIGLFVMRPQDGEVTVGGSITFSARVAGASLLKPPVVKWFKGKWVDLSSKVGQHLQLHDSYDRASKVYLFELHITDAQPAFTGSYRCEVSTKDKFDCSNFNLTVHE
T3 sequence (Q14896 1-101): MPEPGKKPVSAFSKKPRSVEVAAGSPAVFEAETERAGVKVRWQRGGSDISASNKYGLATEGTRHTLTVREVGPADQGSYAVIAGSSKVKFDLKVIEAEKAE

B1: miniHMM, recombinant fragment of human cardiac myosin containing the myosin S2Δ tail domain bound to two RLCs (complex)
chain 1: RDSLLVIQWNIRAFMGVKNWPWMKLYFKIKPLLKSAEREKEMASMKEEFTRLKEALEKSEARRKELEEKMVSLLQEKNDLQLQVQAEQDNLADAEERCDQLIKNKIQLEAKVKEMNERLEDEEEMNAELTAKKRKLEDECSELKRDIDDLELTLAK
chain 2: APKKAKKRAGGANSNVFSMFEQTQIQEFKEAFTIMDQNRDGFIDKNDLRDTFAALGRVNVKNEEIDEMIKEAPGPINFTVFLTMFGEKLKGADPEETILNAFKVFDPEGKGVLKADYVREMLTTQAERFSKEEVDQMFAAFPPDVTGNLDYKNLVHIITHGEEKD
modifications: Limits not printed. C-terminus from S2Δ as the first 126 residues of S2 (838-963 by convention). N-terminus taken at the start of the RLC-binding heavy-chain helix (about 808). RLC initiator Met …
Turning to B1, the Kd in assay [1] was determined as 4.7 µM; in assay [2], 17 µM; in assay [3], 335 µM; in assay [4], 3.2 µM; in assay [5] it was 502 µM; in assay [6], 10.3 µM. In assay [7], this molecule yielded a Kd of 3.4 µM.

B2: phospho-miniHMM (miniHMM phosphorylated in vitro by cMLCK) (complex)
chain 1: RDSLLVIQWNIRAFMGVKNWPWMKLYFKIKPLLKSAEREKEMASMKEEFTRLKEALEKSEARRKELEEKMVSLLQEKNDLQLQVQAEQDNLADAEERCDQLIKNKIQLEAKVKEMNERLEDEEEMNAELTAKKRKLEDECSELKRDIDDLELTLAK
chain 2: APKKAKKRAGGANSNVFSMFEQTQIQEFKEAFTIMDQNRDGFIDKNDLRDTFAALGRVNVKNEEIDEMIKEAPGPINFTVFLTMFGEKLKGADPEETILNAFKVFDPEGKGVLKADYVREMLTTQAERFSKEEVDQMFAAFPPDVTGNLDYKNLVHIITHGEEKD
modifications: phosphorylated by cMLCK to about 1 mol Pi/mol RLC (site not given)
Take B2: the Kd in assay [8] was determined as 5 µM; in assay [7], 2.7 µM.
